# Assay results: patent US20140221281A1 (Sanofi, published 2014)
# Read-outs that look alike come from different tables or passages of the source. *1 amine or outer side, *2 acyl side, *3 side chain or, on linkers, in order; H or OH if unused. Where no end group is shown, it is not given here. Side-chain parts run from the residue outwards. [ ]: non-standard residue; d: D form. The star is where a group is joined. γGlu = O=C(O)[C@H](CCC(=O)[*:2])N[*:1]; Stearoyl = CCCCCCCCCCCCCCCCCC(=O)*; Palmitoyl = CCCCCCCCCCCCCCCC(=O)*; d(αMeK) = C[C@@](N)(CCCCN)C(=O)O; αMeOrn = C[C@](N)(CCCN)C(=O)O; αMeK = C[C@](N)(CCCCN)C(=O)O; Aib = CC(C)(N)C(=O)O
# Legend:
# Test in all cases: cell-based or functional assay
# human GIP receptor [1] = molecular target: T1, human GIP receptor (human, UniProt P48546 22-466)
# T1 sequence (looked up): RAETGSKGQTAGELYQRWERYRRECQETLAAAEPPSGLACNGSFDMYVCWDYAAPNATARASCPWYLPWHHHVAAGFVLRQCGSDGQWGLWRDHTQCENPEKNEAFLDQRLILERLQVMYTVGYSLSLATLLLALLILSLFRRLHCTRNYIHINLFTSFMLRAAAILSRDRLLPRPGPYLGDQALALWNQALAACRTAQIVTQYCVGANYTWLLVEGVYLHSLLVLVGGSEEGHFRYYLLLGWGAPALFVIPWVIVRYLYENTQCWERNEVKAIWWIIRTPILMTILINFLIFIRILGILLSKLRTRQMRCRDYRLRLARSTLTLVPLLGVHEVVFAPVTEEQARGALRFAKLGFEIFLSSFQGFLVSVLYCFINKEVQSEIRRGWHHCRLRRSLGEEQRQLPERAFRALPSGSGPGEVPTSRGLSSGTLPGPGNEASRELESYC
# human glucagon receptor = human glucagon receptor (human, UniProt P47871 26-477)
# Chain of human glucagon receptor (P47871 26-477): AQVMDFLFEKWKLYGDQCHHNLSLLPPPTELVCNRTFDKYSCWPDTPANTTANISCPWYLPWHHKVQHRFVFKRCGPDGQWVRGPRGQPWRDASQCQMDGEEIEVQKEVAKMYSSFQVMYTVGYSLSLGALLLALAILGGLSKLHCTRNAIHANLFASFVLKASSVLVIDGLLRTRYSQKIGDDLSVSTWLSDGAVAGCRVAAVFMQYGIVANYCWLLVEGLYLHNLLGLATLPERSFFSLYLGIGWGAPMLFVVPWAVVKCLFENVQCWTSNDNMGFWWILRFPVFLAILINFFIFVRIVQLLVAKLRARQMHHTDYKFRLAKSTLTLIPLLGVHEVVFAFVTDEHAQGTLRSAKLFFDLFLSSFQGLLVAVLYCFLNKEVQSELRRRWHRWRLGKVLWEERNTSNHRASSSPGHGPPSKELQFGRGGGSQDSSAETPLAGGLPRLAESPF
# human GLP-1 receptor [2] = molecular target: T2, human GLP-1 receptor (human, UniProt P43220 24-463)
# human GIP receptor [3] = molecular target: T1, human GIP receptor; remark: listed apart in the source
# human GLP-1 receptor [4] = molecular target: T2, human GLP-1 receptor; remark: listed apart in the source
Binder,EC50 hGIP R [pM] (cAMP formation) (human GIP receptor [1]),EC50 hGLUC R [pM] (cAMP formation) (human glucagon receptor),EC50 hGLP-1 R [pM] (cAMP formation) (human GLP-1 receptor [2]),EC50 hGIPR [pM] (cAMP formation) (human GIP receptor [3]),EC50 hGLP-1 R [pM] (cAMP formation) (human GLP-1 receptor [4])
Y[Aib]QGTFTSDLSIQK([γGlu-Stearoyl])DEQRA[d(αMeK)]EFIEWLKSGGPSSGAPPPS-NH2 (N-terminus assumed; SMILES CCCCCCCCCCCCCCCCCC(=O)N[C@@H](CCC(=O)NCCCC[C@H](NC(=O)[C@H](CCC(N)=O)NC(=O)[C@@H](NC(=O)[C@H](CO)NC(=O)[C@H](CC(C)C)NC(=O)[C@H](CC(=O)O)NC(=O)[C@H](CO)NC(=O)[C@@H](NC(=O)[C@H](Cc1ccccc1)NC(=O)[C@@H](NC(=O)CNC(=O)[C@H](CCC(N)=O)NC(=O)C(C)(C)NC(=O)[C@@H](N)Cc1ccc(O)cc1)[C@@H](C)O)[C@@H](C)O)[C@@H](C)CC)C(=O)N[C@@H](CC(=O)O)C(=O)N[C@@H](CCC(=O)O)C(=O)N[C@@H](CCC(N)=O)C(=O)N[C@@H](CCCNC(=N)N)C(=O)N[C@@H](C)C(=O)N[C@](C)(CCCCN)C(=O)N[C@@H](CCC(=O)O)C(=O)N[C@@H](Cc1ccccc1)C(=O)N[C@H](C(=O)N[C@@H](CCC(=O)O)C(=O)N[C@@H](Cc1c[nH]c2ccccc12)C(=O)N[C@@H](CC(C)C)C(=O)N[C@@H](CCCCN)C(=O)N[C@@H](CO)C(=O)NCC(=O)NCC(=O)N1CCC[C@H]1C(=O)N[C@@H](CO)C(=O)N[C@@H](CO)C(=O)NCC(=O)N[C@@H](C)C(=O)N1CCC[C@H]1C(=O)N1CCC[C@H]1C(=O)N1CCC[C@H]1C(=O)N[C@@H](CO)C(N)=O)[C@@H](C)CC)C(=O)O) [SEQ ID NO: 13],33.1,202,13.6,,
Y[Aib]EGTFTSDLSIQLEERAA[αMeK]EFIEWLKNTGPSSGAPPPS-NH2 (N-terminus assumed; SMILES CC[C@H](C)[C@H](NC(=O)[C@H](CO)NC(=O)[C@H](CC(C)C)NC(=O)[C@H](CC(=O)O)NC(=O)[C@H](CO)NC(=O)[C@@H](NC(=O)[C@H](Cc1ccccc1)NC(=O)[C@@H](NC(=O)CNC(=O)[C@H](CCC(=O)O)NC(=O)C(C)(C)NC(=O)[C@@H](N)Cc1ccc(O)cc1)[C@@H](C)O)[C@@H](C)O)C(=O)N[C@@H](CCC(N)=O)C(=O)N[C@@H](CC(C)C)C(=O)N[C@@H](CCC(=O)O)C(=O)N[C@@H](CCC(=O)O)C(=O)N[C@@H](CCCNC(=N)N)C(=O)N[C@@H](C)C(=O)N[C@@H](C)C(=O)N[C@@](C)(CCCCN)C(=O)N[C@@H](CCC(=O)O)C(=O)N[C@@H](Cc1ccccc1)C(=O)N[C@H](C(=O)N[C@@H](CCC(=O)O)C(=O)N[C@@H](Cc1c[nH]c2ccccc12)C(=O)N[C@@H](CC(C)C)C(=O)N[C@@H](CCCCN)C(=O)N[C@@H](CC(N)=O)C(=O)N[C@H](C(=O)NCC(=O)N1CCC[C@H]1C(=O)N[C@@H](CO)C(=O)N[C@@H](CO)C(=O)NCC(=O)N[C@@H](C)C(=O)N1CCC[C@H]1C(=O)N1CCC[C@H]1C(=O)N1CCC[C@H]1C(=O)N[C@@H](CO)C(N)=O)[C@@H](C)O)[C@@H](C)CC) [SEQ ID NO: 17],,,,163,5.9
Y[Aib]EGTFTSDLSIQK([γGlu-Palmitoyl])EERAA[αMeK]EFIEWLKAGGPSSGAPPPS-NH2 (N-terminus assumed; SMILES CCCCCCCCCCCCCCCC(=O)N[C@@H](CCC(=O)NCCCC[C@H](NC(=O)[C@H](CCC(N)=O)NC(=O)[C@@H](NC(=O)[C@H](CO)NC(=O)[C@H](CC(C)C)NC(=O)[C@H](CC(=O)O)NC(=O)[C@H](CO)NC(=O)[C@@H](NC(=O)[C@H](Cc1ccccc1)NC(=O)[C@@H](NC(=O)CNC(=O)[C@H](CCC(=O)O)NC(=O)C(C)(C)NC(=O)[C@@H](N)Cc1ccc(O)cc1)[C@@H](C)O)[C@@H](C)O)[C@@H](C)CC)C(=O)N[C@@H](CCC(=O)O)C(=O)N[C@@H](CCC(=O)O)C(=O)N[C@@H](CCCNC(=N)N)C(=O)N[C@@H](C)C(=O)N[C@@H](C)C(=O)N[C@@](C)(CCCCN)C(=O)N[C@@H](CCC(=O)O)C(=O)N[C@@H](Cc1ccccc1)C(=O)N[C@H](C(=O)N[C@@H](CCC(=O)O)C(=O)N[C@@H](Cc1c[nH]c2ccccc12)C(=O)N[C@@H](CC(C)C)C(=O)N[C@@H](CCCCN)C(=O)N[C@@H](C)C(=O)NCC(=O)NCC(=O)N1CCC[C@H]1C(=O)N[C@@H](CO)C(=O)N[C@@H](CO)C(=O)NCC(=O)N[C@@H](C)C(=O)N1CCC[C@H]1C(=O)N1CCC[C@H]1C(=O)N1CCC[C@H]1C(=O)N[C@@H](CO)C(N)=O)[C@@H](C)CC)C(=O)O) [SEQ ID NO: 16],2.5,19800,4.1,,
Y[Aib]EGTFTSDLSIQK([γGlu-Palmitoyl])EERAA[αMeK]EFIEWLKNTGPSSGAPPPS-NH2 (N-terminus assumed; SMILES CCCCCCCCCCCCCCCC(=O)N[C@@H](CCC(=O)NCCCC[C@H](NC(=O)[C@H](CCC(N)=O)NC(=O)[C@@H](NC(=O)[C@H](CO)NC(=O)[C@H](CC(C)C)NC(=O)[C@H](CC(=O)O)NC(=O)[C@H](CO)NC(=O)[C@@H](NC(=O)[C@H](Cc1ccccc1)NC(=O)[C@@H](NC(=O)CNC(=O)[C@H](CCC(=O)O)NC(=O)C(C)(C)NC(=O)[C@@H](N)Cc1ccc(O)cc1)[C@@H](C)O)[C@@H](C)O)[C@@H](C)CC)C(=O)N[C@@H](CCC(=O)O)C(=O)N[C@@H](CCC(=O)O)C(=O)N[C@@H](CCCNC(=N)N)C(=O)N[C@@H](C)C(=O)N[C@@H](C)C(=O)N[C@@](C)(CCCCN)C(=O)N[C@@H](CCC(=O)O)C(=O)N[C@@H](Cc1ccccc1)C(=O)N[C@H](C(=O)N[C@@H](CCC(=O)O)C(=O)N[C@@H](Cc1c[nH]c2ccccc12)C(=O)N[C@@H](CC(C)C)C(=O)N[C@@H](CCCCN)C(=O)N[C@@H](CC(N)=O)C(=O)N[C@H](C(=O)NCC(=O)N1CCC[C@H]1C(=O)N[C@@H](CO)C(=O)N[C@@H](CO)C(=O)NCC(=O)N[C@@H](C)C(=O)N1CCC[C@H]1C(=O)N1CCC[C@H]1C(=O)N1CCC[C@H]1C(=O)N[C@@H](CO)C(N)=O)[C@@H](C)O)[C@@H](C)CC)C(=O)O) [SEQ ID NO: 11],7,3160,5.1,7,5.1
Y[Aib]EGTFTSDLSIQK([γGlu-Stearoyl])DERAA[αMeK]EFIEWLKNTGPSSGAPPPS-NH2 (N-terminus assumed; SMILES CCCCCCCCCCCCCCCCCC(=O)N[C@@H](CCC(=O)NCCCC[C@H](NC(=O)[C@H](CCC(N)=O)NC(=O)[C@@H](NC(=O)[C@H](CO)NC(=O)[C@H](CC(C)C)NC(=O)[C@H](CC(=O)O)NC(=O)[C@H](CO)NC(=O)[C@@H](NC(=O)[C@H](Cc1ccccc1)NC(=O)[C@@H](NC(=O)CNC(=O)[C@H](CCC(=O)O)NC(=O)C(C)(C)NC(=O)[C@@H](N)Cc1ccc(O)cc1)[C@@H](C)O)[C@@H](C)O)[C@@H](C)CC)C(=O)N[C@@H](CC(=O)O)C(=O)N[C@@H](CCC(=O)O)C(=O)N[C@@H](CCCNC(=N)N)C(=O)N[C@@H](C)C(=O)N[C@@H](C)C(=O)N[C@@](C)(CCCCN)C(=O)N[C@@H](CCC(=O)O)C(=O)N[C@@H](Cc1ccccc1)C(=O)N[C@H](C(=O)N[C@@H](CCC(=O)O)C(=O)N[C@@H](Cc1c[nH]c2ccccc12)C(=O)N[C@@H](CC(C)C)C(=O)N[C@@H](CCCCN)C(=O)N[C@@H](CC(N)=O)C(=O)N[C@H](C(=O)NCC(=O)N1CCC[C@H]1C(=O)N[C@@H](CO)C(=O)N[C@@H](CO)C(=O)NCC(=O)N[C@@H](C)C(=O)N1CCC[C@H]1C(=O)N1CCC[C@H]1C(=O)N1CCC[C@H]1C(=O)N[C@@H](CO)C(N)=O)[C@@H](C)O)[C@@H](C)CC)C(=O)O) [SEQ ID NO: 14],4.5,4730,7.2,,
Y[Aib]QGTFTSDLSIQK([γGlu-Stearoyl])DEQRA[αMeOrn]EFIEWLKAGGPSSGAPPPS-NH2 (N-terminus assumed; SMILES CCCCCCCCCCCCCCCCCC(=O)N[C@@H](CCC(=O)NCCCC[C@H](NC(=O)[C@H](CCC(N)=O)NC(=O)[C@@H](NC(=O)[C@H](CO)NC(=O)[C@H](CC(C)C)NC(=O)[C@H](CC(=O)O)NC(=O)[C@H](CO)NC(=O)[C@@H](NC(=O)[C@H](Cc1ccccc1)NC(=O)[C@@H](NC(=O)CNC(=O)[C@H](CCC(N)=O)NC(=O)C(C)(C)NC(=O)[C@@H](N)Cc1ccc(O)cc1)[C@@H](C)O)[C@@H](C)O)[C@@H](C)CC)C(=O)N[C@@H](CC(=O)O)C(=O)N[C@@H](CCC(=O)O)C(=O)N[C@@H](CCC(N)=O)C(=O)N[C@@H](CCCNC(=N)N)C(=O)N[C@@H](C)C(=O)N[C@@](C)(CCCN)C(=O)N[C@@H](CCC(=O)O)C(=O)N[C@@H](Cc1ccccc1)C(=O)N[C@H](C(=O)N[C@@H](CCC(=O)O)C(=O)N[C@@H](Cc1c[nH]c2ccccc12)C(=O)N[C@@H](CC(C)C)C(=O)N[C@@H](CCCCN)C(=O)N[C@@H](C)C(=O)NCC(=O)NCC(=O)N1CCC[C@H]1C(=O)N[C@@H](CO)C(=O)N[C@@H](CO)C(=O)NCC(=O)N[C@@H](C)C(=O)N1CCC[C@H]1C(=O)N1CCC[C@H]1C(=O)N1CCC[C@H]1C(=O)N[C@@H](CO)C(N)=O)[C@@H](C)CC)C(=O)O) [SEQ ID NO: 15],8.9,4,16.1,,
